Consider five molecules from publication PMC5843810, “18th European Symposium on Radiopharmacy and Radiopharmaceuticals” (EJNMMI Radiopharmacy and Chemistry, 2016).

Assay [1] addresses RGD-recognising integrins. The assay can be described thus: standard binding assay on cells (IC50); U-87 MG and SKOV-3 cancer models; the competing ligand is not named.
Assay [2] has as its target RGD-recognising integrin receptors.
Assay [3] concerns the target integrin αvβ3 receptor of αvβ3-positive melanoma tumors in C57BL/6 mice (UniProt P43406).
Assay [4] has as its target T1, αvβ3 integrin receptors on tumor cells, P06756.
T1 chain 1: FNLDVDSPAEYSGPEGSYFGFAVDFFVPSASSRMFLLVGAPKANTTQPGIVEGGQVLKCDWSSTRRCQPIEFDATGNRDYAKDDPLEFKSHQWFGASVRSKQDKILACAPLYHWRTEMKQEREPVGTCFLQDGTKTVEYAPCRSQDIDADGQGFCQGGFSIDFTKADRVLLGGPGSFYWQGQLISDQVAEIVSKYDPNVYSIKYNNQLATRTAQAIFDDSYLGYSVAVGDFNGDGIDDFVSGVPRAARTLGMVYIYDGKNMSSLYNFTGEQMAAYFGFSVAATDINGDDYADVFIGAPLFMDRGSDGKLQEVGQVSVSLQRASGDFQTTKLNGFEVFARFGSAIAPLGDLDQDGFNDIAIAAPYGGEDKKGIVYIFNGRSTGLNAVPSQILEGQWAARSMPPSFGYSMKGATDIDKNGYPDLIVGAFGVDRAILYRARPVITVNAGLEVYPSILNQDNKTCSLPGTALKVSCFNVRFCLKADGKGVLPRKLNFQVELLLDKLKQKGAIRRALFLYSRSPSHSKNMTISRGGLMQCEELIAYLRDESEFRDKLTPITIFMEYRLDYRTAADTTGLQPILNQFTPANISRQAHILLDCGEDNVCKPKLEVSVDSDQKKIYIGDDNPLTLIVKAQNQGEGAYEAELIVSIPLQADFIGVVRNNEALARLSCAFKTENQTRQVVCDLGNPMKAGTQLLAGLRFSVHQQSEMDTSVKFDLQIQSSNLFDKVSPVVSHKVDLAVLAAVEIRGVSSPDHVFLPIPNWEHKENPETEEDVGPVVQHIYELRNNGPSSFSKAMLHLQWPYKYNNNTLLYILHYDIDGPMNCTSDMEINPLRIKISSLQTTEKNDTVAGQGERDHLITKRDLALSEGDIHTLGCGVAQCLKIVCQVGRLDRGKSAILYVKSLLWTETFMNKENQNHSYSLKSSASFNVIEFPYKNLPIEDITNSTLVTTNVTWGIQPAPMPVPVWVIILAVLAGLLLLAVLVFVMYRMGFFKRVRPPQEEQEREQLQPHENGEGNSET
T1 chain 2: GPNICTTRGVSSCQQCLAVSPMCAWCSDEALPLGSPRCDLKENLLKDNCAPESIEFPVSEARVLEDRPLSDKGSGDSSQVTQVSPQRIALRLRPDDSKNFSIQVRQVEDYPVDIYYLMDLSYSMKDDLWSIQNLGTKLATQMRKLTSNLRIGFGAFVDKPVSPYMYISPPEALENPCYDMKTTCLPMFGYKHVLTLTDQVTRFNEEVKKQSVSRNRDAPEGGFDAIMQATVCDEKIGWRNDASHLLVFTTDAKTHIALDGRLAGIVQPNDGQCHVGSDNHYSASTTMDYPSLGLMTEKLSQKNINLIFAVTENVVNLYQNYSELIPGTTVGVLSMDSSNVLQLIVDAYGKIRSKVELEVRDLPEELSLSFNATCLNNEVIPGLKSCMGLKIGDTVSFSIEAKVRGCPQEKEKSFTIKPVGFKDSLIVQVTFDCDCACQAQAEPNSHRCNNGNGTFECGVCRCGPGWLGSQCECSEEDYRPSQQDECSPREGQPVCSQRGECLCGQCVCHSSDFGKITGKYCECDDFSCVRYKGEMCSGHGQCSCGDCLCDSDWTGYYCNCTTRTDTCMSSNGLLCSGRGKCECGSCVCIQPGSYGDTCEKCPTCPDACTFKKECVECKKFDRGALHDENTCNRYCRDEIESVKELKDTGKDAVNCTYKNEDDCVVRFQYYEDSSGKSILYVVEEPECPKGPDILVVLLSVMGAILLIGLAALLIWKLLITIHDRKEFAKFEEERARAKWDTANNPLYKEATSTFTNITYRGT
The assay can be described thus: real-time quantification of cell binding with Ligand Tracer; 68Ga-labelled cyclo-RGD peptides on tumor cells (AR42J and U87MG named). As to conditions: remark: other sources report otherwise.

Primed or numbered codes have the meaning given here. Side-chain parts run from the residue outwards. [ ]: non-standard residue; d: D form. PEG7′ = not defined here; Pra = C#CC[C@H](N)C(=O)O; Tz = not defined here

In turn, cyclo(RGD[dF]V) [control c(RGDfV) peptide] yielded an IC50 in assay [1] of 0.6 µM.

B1: FPyPEGCBT-c(RGDfK) (peptide)
peptide: cyclo(RGD[dF]K)
modifications: also: cysteine-modified, cysteine site not given here, FPyPEGCBT condensed with that cysteine, 18F in the tracer
With B1, in assay [2], the tumour uptake 1 h after injection in mice bearing subcutaneous SKOV-3 tumours is 2.4 %ID/g and the tumour uptake 1 h after injection in mice bearing subcutaneous U-87 MG tumours is 2.9 %ID/g. In assay [1], this molecule yielded an IC50 of 3.08 µM.
Take cyclo(RGD[dF]K([PEG7′-Tz-Pra])) (reading uncertain; also: 99mTc(CO)3 complex) [99mTc(CO)3-Pra-Tz-PEG7-cRGDfK]: the tumor uptake in C57BL/6 mice bearing αvβ3-positive melanoma tumors, maximum at 30 min p.i. (30, 60, 180 min); reduced to 50-60% by cold cRGDfK peptide in assay [3] turned out to be 4.11 %ID/g.
On the same count and under the same terms, the same measure for cyclo(RGD[dF]K) (not fully specified (residue 5); also: 99mTc(CO)3 complex) [99mTc(CO)3-Pra-Tz-CH2-cRGDfK]: 3.01 %ID/g.
As to cyclo(RGD[dF]K) (also: two c(RGDfK) copies on a Glu core, DOTA chelator, 68Ga label) [68Ga-DOTA-E-[c(RGDfK)2]], the retention on cells in assay [4] was < 58%.

The IC50 is the concentration at which inhibition is half-maximal. Low values mean inhibition by little substance, high ones a need for much substance.
